B1: glycerol-3-phosphate dehydrogenase Saci_2032, N-terminally His-tagged (enzyme, Sulfolobus acidocaldarius DSM 639, UniProt Q4J7A2 1-431, looked up)
chain: MEIKTSVLVIGGGANGLFTALDLALRGIDVTLVERRDIGSGTSGRFHGLLHSGARYAVTDPESAKECIQENNIISKIAPHAIRDTGGLFLGITKEDLEFLDKFLSSLKKLGIEHKIVDNNQVLQEEPYVNKDLKIAIWVPDKVVYGYDLLSSIAVTGSLNKARIMTYNEVTEFIRDGNSIKGVKVFDKITNQMNLIKSDIIINTSGPWAFKIITMAGLEEIPILPTAGIMAVFGKKVNNAVLNRLRPPSDGDIIVPYQDTSILGTTATIIEDPDNFTISDEDVKMLIKEGSQLVPELSKTRVIRTYASVRPLMRTSEDGRKASRDFTILDHEREDGVSGLISIIGGKFTTSRLVGEKVGDLVSEKLGVRAKSKTKETKLISPSEIDFEKYLEKIGISKIFLKSVMERRGSLDEERYKTVLYLLLSLIARGR
B2: glycerol kinase Saci_1117 (enzyme, Sulfolobus acidocaldarius DSM 639, UniProt Q4J9R1 1-498, looked up)
chain: MSKYILAVDEGTTSARALVFDEDLNVISIAQTELTQYFPRPGYVEQNPEEIFEKQVSMIKKAVEKAKIEISQVSAIGIANQRETTIMWDSRSGRPVYNAVVWQDRRTSDITDWLKSNYLNLFKSKTGLIPDPYFSASKIKWILDNVPGVREKAERGEIKFGTVDTYLIWKLTNGKVHVTDYSNASRTMLFNIKKLEWDRDILEILEIPEAILPEVRSSSEVYGYAEPVGNIPISGDAGDQQAALFGQLGFSKGDVKCTYGTGSFILMNSGEEIYDSKDLLTTIAWKIGKDVKYALEGSIFTTGAAVQWVRDGLGLVSSSDEIESLASSVVDNGGVYFVPAFSGLGSPYWDPYARGLIIGISRGTSRGHIARAVLESIAYQVRDVIEVIKKDVGKEFVNVLKVDGGVSKNNLLMQFQADILGIRIVRPRVIETTSMGASMLAGLAVDYWSSLEELKSKWAVDREFIPSLQEDRRERLYKGWKEAVRRTIGWAREVETME
B3: glycerol-3-phosphate dehydrogenase Saci_1118, N-terminally His-tagged (enzyme, Sulfolobus acidocaldarius DSM 639, UniProt Q4J9Q8 1-428, looked up)
chain: MKQNSSVIVIGGGATGLFTALDLSLRGINVTLVERGDIASGTSGKFHGLLHSGARYAVNDPESAKECKQENEVLSKIAPEFVRDTGGVFVGITEDDVNYSQRFLSALNSLGITNKVMDVEELIRREPFINKKSKIAIWVPDKVVYGYDLLATVALTASLNGAKILTYNEVKRVLREGNSVRRVEVKDNISGETKILNGDIIVNTAGPWAFRVIEMAGLGEIPLLPTAGIMVVMKEKLNSMVINRLRPPSDGDIIVPYGDSSIIGTTATIIPDPDNFEISDEDINMLIEEGAYMIPRLKEVKPERAYASVRPLIKNAEDGRGATRDFMIIDHEKVDSLDGLISVIGGKFTTSRLAGEKVSDMVSEKLGIREKSKTATIKLMSELDEKLLEKKRVPKVLVKMIRERKGSLDEDRYSTAMYILLSLLARGE
B4: glycerol kinase Saci_2033 (enzyme, Sulfolobus acidocaldarius DSM 639, UniProt Q4J7A3 1-497, looked up)
chain: MAEKYVIAIDEGTTSARAIVFDKELNILGIGQNEFTQYYPQPGYVEHSPEEIWQAQLLAINKALEKAKIDRNNILSIGITNQRETTVMWDTRTGKPIYNAIVWQDRRTAPITDYLKANYLRLIKDRTGLVPDPYFSASKIKWILDNIPNAREKAEKGEIKFGTIDTYLIWKLTNGKAHVTDYSNASRTMLFNIRKLEWDREILEILNIPEAILPDVKPSSEIYGYAEILNSSIPISGDAGDQQAALFGQIAFNQGDVKCTYGTGSFILLNTGSNLVSSNDLLTTIAWGVGKGITYALEGSIFITGAAVQWFRDGLRAIDVSDEIEPLAGSVPDNGGVYFVPAFTGLGAPYWDPYARGLIIGITRGTTKAHIARAILESMAYQTMDVLGIMQRDSGIKIDALKVDGGASKNDLLMQFQADILKMKVVRPKIMETTSMGVAMLAGLSVGYWNSMDELKQKWKIDQVFEPKMDDEYREKLYSGWKEAVRRALGWAKTIGG

Molecular target: the molecule itself
Assay: SEC

| Protein | stoichiometry N |
| --- | --- |
| B1 | 2 |
| B2 | 2 |
| B3 | 2 |
| B4 | 2 |
